Values quoted from earlier work in article PMC2656448.

Target: Histone H3 (H3K4me0) (Homo sapiens) (UniProt P68431)

Kd: 5 µM
Substance: AIRE PHD1 (from UniProt O43918)
